Patent US20230038638A1, “COMPLEMENT FACTOR I-RELATED COMPOSITIONS AND METHODS” (published 2023)
Substitutions are numbered along the chain they refer to.

Tests used:
human C4b (human) [1] = target: T1, human C4b (human) (UniProt P0C0L5)
T1 sequence: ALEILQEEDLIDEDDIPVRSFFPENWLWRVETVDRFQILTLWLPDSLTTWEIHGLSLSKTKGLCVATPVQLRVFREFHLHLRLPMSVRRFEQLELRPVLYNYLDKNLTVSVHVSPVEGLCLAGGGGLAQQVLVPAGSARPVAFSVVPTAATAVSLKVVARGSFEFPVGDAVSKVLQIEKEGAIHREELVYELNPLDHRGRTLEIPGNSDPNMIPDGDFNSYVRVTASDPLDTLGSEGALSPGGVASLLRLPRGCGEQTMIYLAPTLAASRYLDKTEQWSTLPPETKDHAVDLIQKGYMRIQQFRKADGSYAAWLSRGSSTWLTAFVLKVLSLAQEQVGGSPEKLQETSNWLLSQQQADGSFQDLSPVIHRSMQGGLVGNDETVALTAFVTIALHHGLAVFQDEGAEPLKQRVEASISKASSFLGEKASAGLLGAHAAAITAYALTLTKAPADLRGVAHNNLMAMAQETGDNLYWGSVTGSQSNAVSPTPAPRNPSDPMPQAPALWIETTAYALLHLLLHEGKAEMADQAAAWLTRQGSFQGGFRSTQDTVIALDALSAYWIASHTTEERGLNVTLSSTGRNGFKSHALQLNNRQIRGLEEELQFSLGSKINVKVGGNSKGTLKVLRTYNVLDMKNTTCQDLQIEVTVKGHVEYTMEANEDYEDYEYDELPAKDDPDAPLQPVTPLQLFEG

[2] = target: soluble human C3b (human) (UniProt P01024)
human C4b (human) [3] = target: T2, human C4b (human) (UniProt P0C0L4)
T2 sequence: T1 sequence with T151A, G317D, L364P, S365C, I368L, H369D, S420N, A451V, R454L, A530S

[4] = target: soluble human C3b (human) (UniProt P01024); remark: listed apart in the source

C4c EC50 (nM) (human C4b (human) [3]) | iC3b EC50 [4] [µM] | C4c EC50 (human C4b (human) [3]) [µM] | Substance | also measured
439 | 0.0337 |  | CFI-HSA variant K504R (enzyme) | C4b Screen Ref Fold (fold vs CFI-HSA wild type) (human C4b (human) [1]): 0.51; iC3b Screen Ref Fold (fold vs CFI-HSA wild type) [2]: 0.89
381 | 0.0161 |  | CFI-HSA variant E530Y (enzyme) | C4b Screen Ref Fold (fold vs CFI-HSA wild type) (human C4b (human) [1]): 0.33; iC3b Screen Ref Fold (fold vs CFI-HSA wild type) [2]: 1.16
890 | 0.0402 |  | CFI-HSA variant F537K (enzyme) | C4b Screen Ref Fold (fold vs CFI-HSA wild type) (human C4b (human) [1]): 0.3; iC3b Screen Ref Fold (fold vs CFI-HSA wild type) [2]: 1.28
> 1000 | 0.0157 |  | CFI-HSA variant N476Q (enzyme) | C4b Screen Ref Fold (fold vs CFI-HSA wild type) (human C4b (human) [1]): 0.85; iC3b Screen Ref Fold (fold vs CFI-HSA wild type) [2]: 1.03
 | 0.0082 | 0.0483 | CFI-HSA variant E457G; N531G; P535G; K534Q (enzyme) | C4b Screen Ref Fold (fold of CFI-HSA wild type) (human C4b (human) [1]): 5.28; iC3b Screen Ref Fold (fold of CFI-HSA wild type) [2]: 2.34
 | 0.0059 | 0.0184 | CFI-HSA variant N531G; E457G; E461Q; R462K (enzyme) | 
 | 0.0136 | 0.64 | CFI-HSA variant D425P (enzyme) | 
158 | 0.0217 |  | CFI-HSA variant A405G (enzyme) | 
> 1000 | 0.0322 |  | CFI-HSA variant D549A (enzyme) | 
 | 0.0367 | 0.06 | CFI-HSA variant N531G; WT; GGSSGG (SEQ ID NO: 6); CR1(ccp15-17) (enzyme) | 
 | 0.0204 | 0.0601 | CFI-HSA variant N531G; P535A; GGSSGG (SEQ ID NO: 6); CR1(ccp15-17) (enzyme) | 
 | 0.0157 | 0.104 | CFI-HSA variant K534H (enzyme) | 
 | 0.0054 | 0.0242 | CFI-HSA variant N531G; E461Q (enzyme) | 
> 1000 | 0.0531 |  | CFI-HSA variant K504D (enzyme) | iC3b Screen Ref Fold (fold of reference) [2]: 0.17
43.1 | 0.0327 |  | CFI-HSA variant E457G; N531G; E461Q; R462K; F464Y; GGSSGG (SEQ ID NO: 6); CR1 (ccp15-17) (from UniProt P17927) (enzyme) | 
23.2 | 0.0083 |  | CFI-HSA variant N531G; E457G; E461Q; R557K (enzyme) | 
148 | > 0.5 |  | CFI-HSA variant R557D (enzyme) | 
51.1 | 0.0971 |  | CFI-HSA variant N531G; E457G; E461Q; ΔC-term (Δ558-PFISQYNV (SEQ ID NO: 14)-565) (enzyme) | 
145 | 0.116 |  | CFI-HSA variant R557Y (enzyme) | 
50.3 | 0.033 |  | CFI-HSA variant E457G; E461Q; N531G; GGSSGG (SEQ ID NO: 6); CR1 (ccp15-17) (from UniProt P17927) (enzyme) | 
52.6 | 0.0108 |  | CFI-HSA variant E457G; E461Q; R557K (enzyme) | 

C4c EC50 (nM) (human C4b (human) [3]) | iC3b EC50 [4] [µM] | C4c EC50 (human C4b (human) [3]) [µM] | Substance | also measured
 | 0.0171 | 0.0934 | CFI-HSA variant L307A (enzyme) | 
 | 0.0281 | 0.0291 | CFI-HSA variant E457G; N531G; WT; GGSSGG (SEQ ID NO: 6); CR1(ccp15-17) (enzyme) | 
 | 0.013 | 0.112 | CFI-HSA variant D425I (enzyme) | 
 | 0.0143 | 0.112 | CFI-HSA variant D425Y (enzyme) | 
82 | 0.164 |  | CFI-HSA variant R557M (enzyme) | 
145 | 0.169 |  | CFI-HSA variant R557F (enzyme) | 
154 | 0.36 |  | CFI-HSA variant R557N (enzyme) | 
 | 0.0375 | 0.0959 | CFI-HSA variant Y408L; WT; GGSSGG (SEQ ID NO: 6); CR1(ccp15-17) (enzyme) | 
7.8 | 0.0035 |  | CFI-HSA variant E457G; N531G; E461Q; R462K; F464Y; E530Y (enzyme) | 
 | 0.0069 | 0.023 | CFI-HSA variant Y408L; N531G; E457G; R462K (enzyme) | 
12.3 | 0.0043 |  | CFI-HSA variant D425R; Y408L; N531G; E457G; E461Q; R462K; F464Y; E530Y (enzyme) | 
 | 0.0107 | 0.123 | CFI-HSA variant D425H (enzyme) | 
 | 0.106 | > 1 | CFI-HSA variant R462K; F464Y (enzyme) | 
19.2 | 0.0066 |  | CFI-HSA variant T377G; N531G (enzyme) | 
168 | 0.0219 |  | CFI-HSA variant D549N (enzyme) | 
14.9 | 0.0045 |  | CFI-HSA variant T377G; E457G; E461Q (enzyme) | 
 | 0.0209 | 0.242 | CFI-HSA variant K504D; Y408L; N531G (enzyme) | 
 | 0.0216 | 0.0423 | CFI-HSA variant E457G; WT; GGSSGG (SEQ ID NO: 6); CR1(ccp15-17) (enzyme) | 
126 | 0.0089 |  | CFI-HSA variant E401G (enzyme) | 
234 | 0.0036 |  | CFI-HSA variant E457G; D425R; E530Y (enzyme) | 
52.2 | 0.017 |  | CFI-HSA variant N531G; P535A; R557K (enzyme) | 

C4c EC50 (nM) (human C4b (human) [3]) | iC3b EC50 [4] [µM] | C4c EC50 (human C4b (human) [3]) [µM] | Substance | also measured
 | 0.0142 | 0.0876 | CFI-HSA variant D425W (enzyme) | 
 | 0.0184 | 0.0541 | CFI-HSA variant L307S (enzyme) | 
96.3 | 0.288 |  | CFI-HSA variant R557P (enzyme) | 
13 | 0.005 |  | CFI-HSA variant E457G; N531G; E530Y (enzyme) | 
 | 0.0053 | 0.0387 | CFI-HSA variant N531G; E461Q; R462K (enzyme) | 
> 1000 | 0.0417 |  | CFI-HSA variant D549P (enzyme) | 
25 | 0.0191 |  | CFI-HSA variant N531G; E457G; E461Q; R557A (enzyme) | 
324 | 0.217 |  | CFI-HSA variant R557T (enzyme) | 
 | 0.0077 | 0.0173 | CFI-HSA variant N531G; E457G; R462K (enzyme) | 
 | 0.0194 | 0.12 | CFI-HSA variant K504E; Y408L; N531G (enzyme) | 
120 | 0.286 |  | CFI-HSA variant R557Q (enzyme) | 
 | 0.0065 | 0.0112 | CFI-HSA variant E457G; N531G (enzyme) | 
 | 0.007 | 0.0164 | CFI-HSA variant N531G; E457G; F464Y (enzyme) | 
173 | 0.11 |  | CFI-HSA variant Y408L; N531G; ΔC-term (Δ558-PFISQYNV (SEQ ID NO: 14)-565) (enzyme) | 
138 | 0.165 |  | CFI-HSA variant R557V (enzyme) | 
98.8 | 0.198 |  | CFI-HSA variant R557H (enzyme) | 
 | 0.0143 | 0.0444 | CFI-HSA variant E457G; N531G; P535G; WT; GGSSGG (SEQ ID NO: 6); CR1(ccp15-17) (enzyme) | 
 | 0.0115 | 0.227 | CFI-HSA variant D425T (enzyme) | 
17.3 | 0.0246 |  | CFI-HSA variant Y408L; E457G; E461Q; R462K; N531G; R557K (enzyme) | 
177 | 0.113 |  | CFI-HSA variant R557L (enzyme) | 
